From the supplement of paper PMC9112550, “Optimization of the antimicrobial peptide Bac7 by deep mutational scanning” (BMC Biology, 2022)

tested on: Escherichia coli TOP10; experiment: shrunken log2 fold change of peptide-encoding DNA abundance (4.5 h post-induction vs induction); higher = less antimicrobial activity (less host growth inhibition); conditions: time post-induction: 4.5 h; library: site-saturation at positions 5, 18, 19, 20
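Also: peptides expressed intracellularly from a pBAD plasmid library in pooled LB shake-flask culture, induced with 0.3% L-arabinose, DNA abundance read by NGS, three biological replicates, DESeq2 with apeglm shrinkage.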

Sequence | shrunken log2 fold change
RRIRWRPPRLPRPRPRPHFGPRP | 0.168
RRIRIRPPRLPRPRPRPDFLPRP | -0.725
RRIRMRPPRLPRPRPRPDRGPRP | 0.367
RRIRWRPPRLPRPRPRPPQRPRP | 0.548
RRIRYRPPRLPRPRPRPKAQPRP | 0.35
RRIRGRPPRLPRPRPRPKFCPRP | 0.23
RRIRQRPPRLPRPRPRPTVCPRP | 0.0669
RRIRSRPPRLPRPRPRPFLDPRP | -0.149
RRIRIRPPRLPRPRPRPHHQPRP | -0.41
RRIRERPPRLPRPRPRPESVPRP | -0.316
RRIRFRPPRLPRPRPRPCQAPRP | -0.0302
RRIRRRPPRLPRPRPRPSDNPRP | -0.134
RRIRLRPPRLPRPRPRPMFMPRP | -0.208
RRIRMRPPRLPRPRPRPEQSPRP | 3.19
RRIRIRPPRLPRPRPRPREHPRP | -0.393
RRIRVRPPRLPRPRPRPSRAPRP | 0.152
RRIRMRPPRLPRPRPRPYIYPRP | -0.384
RRIRPRPPRLPRPRPRPEDPPRP | 0.122
RRIRCRPPRLPRPRPRPSMMPRP | -0.307
RRIRPRPPRLPRPRPRPSNLPRP | -0.823
RRIRFRPPRLPRPRPRPHMHPRP | -0.655
RRIRVRPPRLPRPRPRPRCCPRP | 0.201

Sequence | shrunken log2 fold change
RRIRLRPPRLPRPRPRPRSGPRP | 0.122
RRIRDRPPRLPRPRPRPNLGPRP | -0.00884
RRIRYRPPRLPRPRPRPQYAPRP | -0.262
RRIRKRPPRLPRPRPRPNTHPRP | -0.125
RRIRCRPPRLPRPRPRPVGVPRP | 0.299
RRIRNRPPRLPRPRPRPMENPRP | -0.0164
RRIRERPPRLPRPRPRPYKQPRP | -0.049
RRIRDRPPRLPRPRPRPACGPRP | 0.684
RRIRRRPPRLPRPRPRPWSYPRP | -0.573
RRIRDRPPRLPRPRPRPPYKPRP | -0.1
RRIRGRPPRLPRPRPRPTIMPRP | 0.365
RRIRTRPPRLPRPRPRPNAAPRP | 0.371
RRIRERPPRLPRPRPRPGVKPRP | -0.0766
RRIRPRPPRLPRPRPRPGPIPRP | 0.148
RRIRWRPPRLPRPRPRPMYVPRP | -0.0461
RRIRMRPPRLPRPRPRPNWHPRP | -0.0297
RRIRNRPPRLPRPRPRPSRIPRP | -0.234
RRIRARPPRLPRPRPRPKAEPRP | 0.821
RRIRQRPPRLPRPRPRPIWRPRP | -0.068
RRIRIRPPRLPRPRPRPIFAPRP | -0.0891
RRIRPRPPRLPRPRPRPNGPPRP | -0.027
RRIRNRPPRLPRPRPRPAKKPRP | -0.0505

Sequence | shrunken log2 fold change
RRIRYRPPRLPRPRPRPQNSPRP | -0.00968
RRIRDRPPRLPRPRPRPCRHPRP | 0.344
RRIRVRPPRLPRPRPRPLWKPRP | -0.0321
RRIRARPPRLPRPRPRPIFIPRP | 0.127
RRIRWRPPRLPRPRPRPGAKPRP | 0.21
RRIRHRPPRLPRPRPRPEFCPRP | -0.0591
RRIRRRPPRLPRPRPRPTPHPRP | 0.884
RRIRERPPRLPRPRPRPPAGPRP | 0.589
RRIRARPPRLPRPRPRPMRQPRP | 0.829
RRIRERPPRLPRPRPRPYWWPRP | -0.142
RRIRMRPPRLPRPRPRPMKEPRP | -0.0707
RRIRVRPPRLPRPRPRPRLPPRP | 0.636
RRIRLRPPRLPRPRPRPDPSPRP | 0.0199
RRIRYRPPRLPRPRPRPTHLPRP | -0.0864
RRIRVRPPRLPRPRPRPQYPPRP | -0.101
RRIRVRPPRLPRPRPRPHKSPRP | 0.0325
RRIRYRPPRLPRPRPRPTEFPRP | -0.465
RRIRWRPPRLPRPRPRPLKKPRP | 0.0518
RRIRLRPPRLPRPRPRPHIHPRP | -0.29
RRIRRRPPRLPRPRPRPMTQPRP | 0.176
RRIRKRPPRLPRPRPRPLFKPRP | 0.11
RRIRGRPPRLPRPRPRPDMSPRP | 0.0457

Sequence | shrunken log2 fold change
RRIRVRPPRLPRPRPRPYDLPRP | -0.121
RRIRFRPPRLPRPRPRPMDEPRP | 0.0137
RRIRCRPPRLPRPRPRPCRDPRP | -0.142
RRIRERPPRLPRPRPRPKQCPRP | -0.354
RRIRNRPPRLPRPRPRPQHQPRP | -0.135
RRIRRRPPRLPRPRPRPSSPPRP | 0.00935
RRIRFRPPRLPRPRPRPWDFPRP | -0.0975
RRIRKRPPRLPRPRPRPAFTPRP | 0.021
RRIRFRPPRLPRPRPRPVKPPRP | -0.0579
RRIRMRPPRLPRPRPRPQCKPRP | -0.0461
RRIRIRPPRLPRPRPRPQVRPRP | -0.223
RRIRDRPPRLPRPRPRPRIKPRP | -0.454
RRIRTRPPRLPRPRPRPWTRPRP | 0.064
RRIRPRPPRLPRPRPRPFEKPRP | 0.0465
RRIRIRPPRLPRPRPRPPNWPRP | 0.0636
RRIRHRPPRLPRPRPRPQASPRP | 0.0479
RRIRQRPPRLPRPRPRPCLKPRP | -0.286
RRIRMRPPRLPRPRPRPPTFPRP | 0.122
RRIRERPPRLPRPRPRPMLYPRP | -0.222
RRIRDRPPRLPRPRPRPCHAPRP | -0.0662
RRIRSRPPRLPRPRPRPIAKPRP | -0.0775
RRIRTRPPRLPRPRPRPRSNPRP | 0.186

Sequence | shrunken log2 fold change
RRIRYRPPRLPRPRPRPMQWPRP | -0.00277
RRIRKRPPRLPRPRPRPPPWPRP | 1.03
RRIRKRPPRLPRPRPRPGVDPRP | 0.824
RRIRSRPPRLPRPRPRPWCNPRP | -0.116
RRIRSRPPRLPRPRPRPRHSPRP | -0.356
RRIRFRPPRLPRPRPRPELSPRP | 0.0455
RRIRERPPRLPRPRPRPDMDPRP | 0.0527
RRIRNRPPRLPRPRPRPMHLPRP | -0.179
RRIRRRPPRLPRPRPRPSIIPRP | -0.332
RRIRHRPPRLPRPRPRPQYDPRP | -1.12
RRIRWRPPRLPRPRPRPKWAPRP | 0.507
RRIRYRPPRLPRPRPRPFDSPRP | -0.0136
RRIRNRPPRLPRPRPRPSHLPRP | -0.438
RRIRMRPPRLPRPRPRPVEPPRP | 0.207
RRIRIRPPRLPRPRPRPTYEPRP | -0.458
RRIRTRPPRLPRPRPRPDYQPRP | -0.0545
RRIRPRPPRLPRPRPRPCNTPRP | -0.333
RRIRDRPPRLPRPRPRPARGPRP | 0.793
RRIRRRPPRLPRPRPRPSPDPRP | 0.608
RRIRRRPPRLPRPRPRPERGPRP | 0.798
RRIRMRPPRLPRPRPRPIHKPRP | 0.0536
